Results from the supplement of paper PMC7125110.
± gives the standard error. For part of these data: Variants at the floor of the assay were thinned out.

B1: glmS ribozyme (parent)
chain: AUAAAAGCGCCAGAACUACAGAAAUGUAGUUGACGAGGAGGAGGUUUAUCGAAUUUUCGGCGGAUGCCUCCAAA

Key:
Conditions in all cases: with glucosamine-6-phosphate
glucosamine-6-phosphate [1] = variants of: B1; experiment: self-cleavage kobs at 40 uM GlcN6P; higher = faster cleavage; RNA array
Outline: (§1)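 Barcoded ribozyme variants on sequenced MiSeq chips were transcribed in situ by E. coli RNA polymerase and followed at 37 °C through a hybridised Cy3 probe. Glucosamine-6-phosphate at 40 μM to 10 mM in HEPES/KCl/Mg(OAc)2 buffer was flowed in, and tiles were imaged over ~14 h. Signals were normalised to baseline and to non-cleaving reference variants, and per-tile medians were fit to one- or two-exponential decays to give kobs. Weighted Michaelis–Menten fits across concentrations gave kcat and KM.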

glucosamine-6-phosphate [2] = variants of: B1; experiment: self-cleavage kobs at 10000 uM GlcN6P; higher = faster cleavage; RNA array
Outline: as §1

glucosamine-6-phosphate [3] = variants of: B1; experiment: KM; higher = weaker cofactor use; RNA array
Outline: as §1

glucosamine-6-phosphate [4] = variants of: B1; experiment: self-cleavage kobs at 160 uM GlcN6P; higher = faster cleavage; RNA array
Outline: as §1

glucosamine-6-phosphate [5] = variants of: B1; experiment: self-cleavage kobs at 640 uM GlcN6P; higher = faster cleavage; RNA array
Outline: as §1

glucosamine-6-phosphate [6] = variants of: B1; experiment: self-cleavage kobs at 2500 uM GlcN6P; higher = faster cleavage; RNA array
Outline: as §1

glucosamine-6-phosphate [7] = variants of: B1; experiment: kcat; higher = faster cleavage; RNA array
Outline: as §1

Variant: U30C G37C C58A G60U
- self-cleavage kobs at 40 uM GlcN6P (glucosamine-6-phosphate [1]): < 1e-05 s⁻¹
- self-cleavage kobs at 10000 uM GlcN6P (glucosamine-6-phosphate [2]): < 1e-05 s⁻¹

Variant: G62A G63U
- KM (glucosamine-6-phosphate [3]): 359 ± 79 µM

Variant: A15G U49G
- self-cleavage kobs at 40 uM GlcN6P (glucosamine-6-phosphate [1]): 4.65e-05 ± 2e-05 s⁻¹
- self-cleavage kobs at 160 uM GlcN6P (glucosamine-6-phosphate [4]): 0.000118 ± 3.1e-05 s⁻¹
- self-cleavage kobs at 640 uM GlcN6P (glucosamine-6-phosphate [5]): 0.000228 ± 4.3e-05 s⁻¹
- self-cleavage kobs at 2500 uM GlcN6P (glucosamine-6-phosphate [6]): 0.000499 ± 0.0001 s⁻¹
- self-cleavage kobs at 10000 uM GlcN6P (glucosamine-6-phosphate [2]): 0.00148 ± 0.00024 s⁻¹

Variant: G40C A42G
- kcat (glucosamine-6-phosphate [7]): 0.00319 ± 0.00048 s⁻¹
- KM (glucosamine-6-phosphate [3]): 1060 ± 250 µM
- self-cleavage kobs at 40 uM GlcN6P (glucosamine-6-phosphate [1]): 0.000131 ± 2.4e-05 s⁻¹
- self-cleavage kobs at 160 uM GlcN6P (glucosamine-6-phosphate [4]): 0.000438 ± 0.00016 s⁻¹
- self-cleavage kobs at 640 uM GlcN6P (glucosamine-6-phosphate [5]): 0.000898 ± 0.00025 s⁻¹
- self-cleavage kobs at 2500 uM GlcN6P (glucosamine-6-phosphate [6]): 0.0025 ± 0.0006 s⁻¹
- self-cleavage kobs at 10000 uM GlcN6P (glucosamine-6-phosphate [2]): 0.00299 ± 0.00053 s⁻¹

Variant: G7A A52U G63C
- self-cleavage kobs at 40 uM GlcN6P (glucosamine-6-phosphate [1]): < 1e-05 s⁻¹
- self-cleavage kobs at 160 uM GlcN6P (glucosamine-6-phosphate [4]): < 1e-05 s⁻¹
- self-cleavage kobs at 640 uM GlcN6P (glucosamine-6-phosphate [5]): < 1e-05 s⁻¹
- self-cleavage kobs at 2500 uM GlcN6P (glucosamine-6-phosphate [6]): < 1e-05 s⁻¹

Variant: U47C U54G
- kcat (glucosamine-6-phosphate [7]): 0.00375 ± 0.00045 s⁻¹
- KM (glucosamine-6-phosphate [3]): 1210 ± 200 µM
- self-cleavage kobs at 40 uM GlcN6P (glucosamine-6-phosphate [1]): 0.000121 ± 1.7e-05 s⁻¹
- self-cleavage kobs at 640 uM GlcN6P (glucosamine-6-phosphate [5]): 0.0013 ± 0.00028 s⁻¹
- self-cleavage kobs at 2500 uM GlcN6P (glucosamine-6-phosphate [6]): 0.00193 ± 0.00076 s⁻¹
- self-cleavage kobs at 10000 uM GlcN6P (glucosamine-6-phosphate [2]): 0.00359 ± 0.00065 s⁻¹

Variant: G41U A52C
- KM (glucosamine-6-phosphate [3]): 3260 ± 480 µM

Variant: G13C A14C C61A C67U
- kcat (glucosamine-6-phosphate [7]): 3.08e-05 ± 1.3e-05 s⁻¹
- self-cleavage kobs at 640 uM GlcN6P (glucosamine-6-phosphate [5]): 4.47e-05 ± 1.8e-05 s⁻¹

Variant: U30C C58U C70U
- kcat (glucosamine-6-phosphate [7]): 3.42e-05 ± 1.3e-05 s⁻¹
- self-cleavage kobs at 640 uM GlcN6P (glucosamine-6-phosphate [5]): 5.85e-05 ± 2.1e-05 s⁻¹
- self-cleavage kobs at 2500 uM GlcN6P (glucosamine-6-phosphate [6]): 3.95e-05 ± 1.9e-05 s⁻¹

Variant: C34G G38A C58A C68G
- kcat (glucosamine-6-phosphate [7]): 5.13e-05 ± 7.5e-06 s⁻¹
- self-cleavage kobs at 640 uM GlcN6P (glucosamine-6-phosphate [5]): 5.22e-05 ± 1.6e-05 s⁻¹
- self-cleavage kobs at 2500 uM GlcN6P (glucosamine-6-phosphate [6]): 4.79e-05 ± 1.7e-05 s⁻¹

Variant: G29A G37C U69C
- self-cleavage kobs at 40 uM GlcN6P (glucosamine-6-phosphate [1]): < 1e-05 s⁻¹
- self-cleavage kobs at 10000 uM GlcN6P (glucosamine-6-phosphate [2]): < 1e-05 s⁻¹

Variant: C8U G44A
- self-cleavage kobs at 40 uM GlcN6P (glucosamine-6-phosphate [1]): < 1e-05 s⁻¹
- self-cleavage kobs at 160 uM GlcN6P (glucosamine-6-phosphate [4]): < 1e-05 s⁻¹
- self-cleavage kobs at 640 uM GlcN6P (glucosamine-6-phosphate [5]): < 1e-05 s⁻¹
- self-cleavage kobs at 2500 uM GlcN6P (glucosamine-6-phosphate [6]): < 1e-05 s⁻¹

Variant: A12C G13U
- kcat (glucosamine-6-phosphate [7]): 0.000279 ± 2.1e-05 s⁻¹
- KM (glucosamine-6-phosphate [3]): 6200 ± 850 µM
- self-cleavage kobs at 640 uM GlcN6P (glucosamine-6-phosphate [5]): 2.43e-05 ± 6.8e-06 s⁻¹
- self-cleavage kobs at 2500 uM GlcN6P (glucosamine-6-phosphate [6]): 8.18e-05 ± 1e-05 s⁻¹
- self-cleavage kobs at 10000 uM GlcN6P (glucosamine-6-phosphate [2]): 0.000172 ± 1.6e-05 s⁻¹

Variant: C16U G66A
- KM (glucosamine-6-phosphate [3]): 1520 ± 640 µM
- self-cleavage kobs at 40 uM GlcN6P (glucosamine-6-phosphate [1]): 0.000448 ± 9.7e-05 s⁻¹
- self-cleavage kobs at 160 uM GlcN6P (glucosamine-6-phosphate [4]): 0.00133 ± 0.00023 s⁻¹
- self-cleavage kobs at 640 uM GlcN6P (glucosamine-6-phosphate [5]): 0.00417 ± 0.00068 s⁻¹
- self-cleavage kobs at 2500 uM GlcN6P (glucosamine-6-phosphate [6]): 0.00873 ± 0.0019 s⁻¹
- self-cleavage kobs at 10000 uM GlcN6P (glucosamine-6-phosphate [2]): 0.0329 ± 0.014 s⁻¹

Variant: C8G C10G C11U A33G U47C C70A C71A
- self-cleavage kobs at 40 uM GlcN6P (glucosamine-6-phosphate [1]): < 1e-05 s⁻¹

Variant: A14C U46A
- kcat (glucosamine-6-phosphate [7]): 0.000352 ± 1.6e-05 s⁻¹
- KM (glucosamine-6-phosphate [3]): 1880 ± 170 µM
- self-cleavage kobs at 640 uM GlcN6P (glucosamine-6-phosphate [5]): 9.13e-05 ± 1e-05 s⁻¹
- self-cleavage kobs at 2500 uM GlcN6P (glucosamine-6-phosphate [6]): 0.000194 ± 2.1e-05 s⁻¹
- self-cleavage kobs at 10000 uM GlcN6P (glucosamine-6-phosphate [2]): 0.000301 ± 3.2e-05 s⁻¹

Variant: C16G G51C
- kcat (glucosamine-6-phosphate [7]): < 1e-05 s⁻¹
- self-cleavage kobs at 40 uM GlcN6P (glucosamine-6-phosphate [1]): < 1e-05 s⁻¹

Variant: G44U U45G
- kcat (glucosamine-6-phosphate [7]): 0.0224 ± 0.0018 s⁻¹
- KM (glucosamine-6-phosphate [3]): 3420 ± 360 µM
- self-cleavage kobs at 40 uM GlcN6P (glucosamine-6-phosphate [1]): 0.000269 ± 4.1e-05 s⁻¹
- self-cleavage kobs at 160 uM GlcN6P (glucosamine-6-phosphate [4]): 0.00106 ± 0.00018 s⁻¹
- self-cleavage kobs at 640 uM GlcN6P (glucosamine-6-phosphate [5]): 0.0033 ± 0.00046 s⁻¹
- self-cleavage kobs at 2500 uM GlcN6P (glucosamine-6-phosphate [6]): 0.00801 ± 0.0035 s⁻¹
- self-cleavage kobs at 10000 uM GlcN6P (glucosamine-6-phosphate [2]): 0.017 ± 0.0022 s⁻¹
